Key:
[1] = target: bevacizumab (human); assay: ELISA; pH 5.5; biologic titrated and captured on coated human VEGF165; 1 ug/mL hFcRn-GST added for 1 h at room temperature (100 mM phosphate, 0.15 M NaCl, 4% skimmed milk, 0.05% Tween 20); detected with HRP-conjugated anti-GST
[2] = target: aflibercept (human); assay: as above

recombinant hFcRn-GST, sequence (P55899 whole entry, looked up, tested part not stated): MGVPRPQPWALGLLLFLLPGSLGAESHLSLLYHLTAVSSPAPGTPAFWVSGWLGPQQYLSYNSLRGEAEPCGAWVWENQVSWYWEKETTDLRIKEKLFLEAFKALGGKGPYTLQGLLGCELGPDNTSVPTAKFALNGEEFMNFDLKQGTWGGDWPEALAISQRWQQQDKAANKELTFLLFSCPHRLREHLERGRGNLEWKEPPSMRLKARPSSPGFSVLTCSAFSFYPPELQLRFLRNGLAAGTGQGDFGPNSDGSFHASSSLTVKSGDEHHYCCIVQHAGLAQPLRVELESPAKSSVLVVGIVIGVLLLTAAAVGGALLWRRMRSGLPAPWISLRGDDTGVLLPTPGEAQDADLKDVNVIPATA
bevacizumab (human), sequence (heavy, as listed by the source, chain 1 of 2): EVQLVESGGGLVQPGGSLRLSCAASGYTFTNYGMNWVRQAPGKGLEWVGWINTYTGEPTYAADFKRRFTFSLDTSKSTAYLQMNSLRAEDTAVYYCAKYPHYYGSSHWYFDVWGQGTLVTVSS
bevacizumab (human), sequence (light, as listed by the source, chain 2 of 2): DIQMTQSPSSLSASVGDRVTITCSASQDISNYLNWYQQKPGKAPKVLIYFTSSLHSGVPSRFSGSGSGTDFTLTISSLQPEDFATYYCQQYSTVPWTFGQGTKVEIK

Q: How did the reduction of absorbance at D30 (capped syringe) against D0-n [1] turn out when “recombinant hFcRn-GST (from UniProt P55899 24-365) (receptor)” was run?
A: 18.7%

Q: And the reduction of absorbance at D30 (capped syringe) against D0-n [2]?
A: 37.5%

Source: paper PMC11182194
